Laboratory results as given in patent US6670183.

Columns and labels:
[1] = biological target: GP88 cell surface receptors on CCL64 mink lung epithelial cells (mink); assay: Scatchard analysis, 125I-rGP88 on CCL64 cells; low affinity class of sites
[2] = biological target: GP88 cell surface receptors on CCL64 mink lung epithelial cells (mink); assay: Scatchard analysis, 125I-rGP88 on CCL64 cells; high affinity class of sites
[3] = biological target: GP88 cell surface receptors on CCL64 mink lung epithelial cells (mink); assay: Scatchard analysis, 125I-rGP88 displaced by cold rGP88 on CCL64 cells in suspension; high affinity class of sites
[4] = biological target: GP88 cell surface receptors on CCL64 mink lung epithelial cells (mink); assay: Scatchard analysis, 125I-rGP88 displaced by cold rGP88 on CCL64 cells in suspension; low affinity class of sites

B1: recombinant GP88 (rGP88), mouse GP88 expressed in baculovirus infected Sf9 insect cells (ligand)
chain: TQCPDGQFCPVACCLDQGGANYSCCNPLLDTWPRITSHHLDGSCQTHGHCPAGYSCLLTVSGTSSCCPFSKGVSCGDGYHCCPQGFHCSADGKSCFQMSDNPLGAVQCPGSQFECPDSATCCIMVDGSWGCCPMPQASCCEDRVHCCPHGASCDLVHTRCVSPTGTHTLLKKFPAQKTNSAVSLPFSVVCPDAKTQCPDDSTCCELPTGKYGCCPMPNAICCSDHLHCCPQDTVCDLIQSKCLSKNYTTDLLTKLPGYPVKEVKCDMEVSCPEGYTCCRLNTGAWGCCPFAKAVCCDDHIHCCPAGFQCHTEKGTCEMGILQVGWMKKVIAPLRLPDPQILKSDTPCDDFTRCPTNNTCCKLNSGDWGCCPIPEAVCCSDNQHCCPQGFTCLAQGYCQKGDTMVAGLEKIPARQTTPLQIGDIGCDQHTSCPVGQTCCPSLKGSWACCQLPHAVCCEDRQHCCPAGYTCNVKARTCEKDVDFIQPPVLLTLGPKVGNVECGEGHFCHDNQTCCKDSAGVWACCPYLKGVCCRDGRHCCPGGFHCSARGTKCLRKKIPRWDMFLRDPVPRPLL
modifications: the labelled form is 125I-iodinated by the chloramine T method (residues not stated)
[1]
  sites/cell: 17000 sites/cell
[2]
  sites/cell: 560 sites/cell
[3]
  Kd: 0.043 nM
[4]
  Kd: 3.9 nM
